Sequences and labels used below:
B1: TPR t1 (parent)
chain: GACCAAUCUGCCCUCAGAGCUCGAGAACAUCUUCGGAUGCAGAGGAGGCAGGCUUCGGUGGCGCGAUAGCGCCAACGUCCUCAACCUCCAAUGCAUCCCACCACAUGAUGAUGCCUGAAGAGCCUUGGUUUUUUG

Experimental findings from the RNAGym collection of RNA variant scans (doi:10.1073/pnas.2313332121) are described below.

This data set covers variants of B1. The data set can be described thus: polymerase ribozyme fitness, log enrichment relative to wild type (log ratio); higher = more active; in vitro selection for triplet polymerase activity. Summed up: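 Mutant libraries were PCR-built and transcribed for each subunit of a heterodimeric triplet polymerase ribozyme and selected for one round in triplicate at −7 °C, frozen, before gel excision of extended constructs and streptavidin-bead capture. Input and output libraries were Illumina-sequenced, keeping genotypes with ≥10 input reads and ≥1 read per output. Fitness is a logarithmic ratio of genotype to wild-type enrichment, in base 2, using inverse-variance-weighted replicate averages.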
Take C62A C82U A121U U125A: the “polymerase ribozyme fitness (log ratio)” value came out at 1.19.
For G60U C82U, the “polymerase ribozyme fitness (log ratio)” value is -0.383.
In the case of G60A U92A C104U U133A, the “polymerase ribozyme fitness (log ratio)” value was -2.74.
As to C62A A84U, the “polymerase ribozyme fitness (log ratio)” value was -1.52.
As to G61A G113A U130G, the “polymerase ribozyme fitness (log ratio)” value was -1.32.
With C62A U109G G110U, the “polymerase ribozyme fitness (log ratio)” value is -4.7.
The result for U59G U81G U96G reads -3.9; that for U59G C79A A103G, -5.54.
The result for G61A C73G reads -1.15; that for G61A A84U C94A U131C, -0.628; that for G61A C82U C115A, 0.0919.
Take U59G C85U G113A: the “polymerase ribozyme fitness (log ratio)” value was -1.67.
As to G60C C114A, the “polymerase ribozyme fitness (log ratio)” value was -1.83.
Turning to G61C C89A U132C, the “polymerase ribozyme fitness (log ratio)” value is -3.89.
Regarding C62A U81A G93A, the “polymerase ribozyme fitness (log ratio)” value was -2.69.
In the case of G61U A118G, the “polymerase ribozyme fitness (log ratio)” value came to 0.1.
With G61U C73U A121G, the “polymerase ribozyme fitness (log ratio)” value is 0.407.
The result for G61U A84U reads -0.0265; that for G61A A91C, -0.737.
On to C62A A103U, for which the “polymerase ribozyme fitness (log ratio)” value is -5.71.
Turning to G60U C79U, the “polymerase ribozyme fitness (log ratio)” value was found to be 0.386.
The result for G61U A100C reads -0.248; that for G61U G113C U130G G135U, -3.21; that for C62G A83U U96A, -4.56.
For C62G U112G, the “polymerase ribozyme fitness (log ratio)” value was -1.83.
As to G60U U78A U106A, the “polymerase ribozyme fitness (log ratio)” value stood at 0.283.
On to G61C A83C C89U, for which the “polymerase ribozyme fitness (log ratio)” value was -2.95.
With G61U C104U, the “polymerase ribozyme fitness (log ratio)” value is 0.264.
The result for G61C reads -1.63.
Take G61U: the “polymerase ribozyme fitness (log ratio)” value stood at 0.14.
Turning to G61A, the “polymerase ribozyme fitness (log ratio)” value was 0.0725.
For G61A C79A C104A A111U, the “polymerase ribozyme fitness (log ratio)” value was -5.96.
Take G60U C114U: the “polymerase ribozyme fitness (log ratio)” value is -2.1.
Regarding G61C G110U, the “polymerase ribozyme fitness (log ratio)” value was -3.71.
The result for C62A G77U C115G reads -2.95; that for G61C U126A, -2.98.
With G61C U112A, the “polymerase ribozyme fitness (log ratio)” value is -0.897.
On to C62A C82A C85U, for which the “polymerase ribozyme fitness (log ratio)” value is -2.3.
Regarding G61U C98A C99A, the “polymerase ribozyme fitness (log ratio)” value is -5.19.
Turning to G61C U81A C124G U132C, the “polymerase ribozyme fitness (log ratio)” value is -2.36.
As to G60U C124G, the “polymerase ribozyme fitness (log ratio)” value stood at 1.38.
Regarding C62G U106C, the “polymerase ribozyme fitness (log ratio)” value was -2.05.
On to G60U A90U, for which the “polymerase ribozyme fitness (log ratio)” value was -1.1.
For G61C C104U A111C, the “polymerase ribozyme fitness (log ratio)” value is -1.59.
On to C62A U116G G120C U129A, for which the “polymerase ribozyme fitness (log ratio)” value was -3.57.
Consider C62A C72U G93C, for which the “polymerase ribozyme fitness (log ratio)” value was -1.64.
On to G60C C102U G128A, for which the “polymerase ribozyme fitness (log ratio)” value is -4.97.
As for G60A A91U, the “polymerase ribozyme fitness (log ratio)” value was -1.09.
For the variant G60A C64G G69U U132A, the “polymerase ribozyme fitness (log ratio)” value was -0.296.
The result for G61C C114U reads -4.
On to G60C G110U, for which the “polymerase ribozyme fitness (log ratio)” value was -1.71.
As for G61A C97U, the “polymerase ribozyme fitness (log ratio)” value was -0.149.
For G60U G93A C98G, the “polymerase ribozyme fitness (log ratio)” value is -6.44.
On to C62A U81G, for which the “polymerase ribozyme fitness (log ratio)” value was -5.64.
For G60C A90C C97U G117C, the “polymerase ribozyme fitness (log ratio)” value is -6.07.
In the case of G60C A121C U130A, the “polymerase ribozyme fitness (log ratio)” value turned out to be 0.0713.
The result for G61A G135A reads -1.88; that for G60A A118U U126A, -2.3.
The result for C62A G120C reads -0.534.
In the case of G61C C104U G110A, the “polymerase ribozyme fitness (log ratio)” value is -2.86.
The result for G60A U78A G107C A111U reads -5.18.
With G61U U81G C86U G120U, the “polymerase ribozyme fitness (log ratio)” value was -2.64.
G60U G93C C104A G113C: the “polymerase ribozyme fitness (log ratio)” value was -4.47.
Turning to G60A C88G, the “polymerase ribozyme fitness (log ratio)” value is -1.54.
The result for G60A C88U reads -0.511; that for G61A U78C, -0.183.
Take G60C A74C: the “polymerase ribozyme fitness (log ratio)” value was -4.67.
As for G60C A121G, the “polymerase ribozyme fitness (log ratio)” value came out at 1.05.
In the case of G61A C62U C73A, the “polymerase ribozyme fitness (log ratio)” value was -2.37.
On to G61U G135A, for which the “polymerase ribozyme fitness (log ratio)” value was -0.268.
The result for G60C C82A reads -0.574.
Regarding G60C C82G, the “polymerase ribozyme fitness (log ratio)” value was -0.49.
As to G60C C102U, the “polymerase ribozyme fitness (log ratio)” value is -2.87.
The result for G61A U133A reads -0.418; that for G60A C72G C79A U87C U129C, -3.89; that for G61A U78G C85U A90C, -2.22.
The result for G61C C79U C101G reads -1.64.
The result for G60U C85A reads -0.541; that for G60U U131C, -0.0582; that for G61U C99A, -5.7.
For the variant G61U U133G, the “polymerase ribozyme fitness (log ratio)” value was -0.566.
Consider C62A U78A A91U A111C, for which the “polymerase ribozyme fitness (log ratio)” value is -4.78.
The result for G61U C94U reads 0.338; that for C62A G77C U87A, -1.71; that for G61A C104U, 0.241.
The result for G60A U78A U92C reads -1.57.
On to G60C G69A, for which the “polymerase ribozyme fitness (log ratio)” value was -4.01.
G60C G61A U96A: the “polymerase ribozyme fitness (log ratio)” value is -2.15.
The result for G60U C104U U116A reads -2.99.
Regarding C62A A83U A90U A91C, the “polymerase ribozyme fitness (log ratio)” value was -3.43.
The result for G60U G93A reads -0.449; that for G60U G93C, -0.936; that for G60C C88U G117A, -1.68.
Regarding G61U C115G G117A G122U U126C, the “polymerase ribozyme fitness (log ratio)” value was -4.57.
Consider C62A G117C, for which the “polymerase ribozyme fitness (log ratio)” value is -4.72.
Take G60A G63A C114U: the “polymerase ribozyme fitness (log ratio)” value was -4.85.
The result for G61A U78C C85U U96C C101U U109G reads -5.66; that for G60A G135A, -0.733.
Turning to G60A G135U, the “polymerase ribozyme fitness (log ratio)” value is -0.711.
With G60A C99U, the “polymerase ribozyme fitness (log ratio)” value is -2.87.
For G61C G93U U130A, the “polymerase ribozyme fitness (log ratio)” value was -3.65.
In the case of G61A U92A C123A G127U, the “polymerase ribozyme fitness (log ratio)” value was -1.55.
For G61A G110U U132A, the “polymerase ribozyme fitness (log ratio)” value was -0.611.
With G60A C62U U112G, the “polymerase ribozyme fitness (log ratio)” value came out at 0.38.
In the case of G60A U116G, the “polymerase ribozyme fitness (log ratio)” value is -2.22.
For G61C C73U C85U G117A U129C, the “polymerase ribozyme fitness (log ratio)” value was -5.49.
For the variant G60A A90C, the “polymerase ribozyme fitness (log ratio)” value was -0.936.
On to G61U C97A C123A, for which the “polymerase ribozyme fitness (log ratio)” value is -4.17.
G61U C82A: the “polymerase ribozyme fitness (log ratio)” value is -0.605.
Turning to G61U C82G A91C U112C, the “polymerase ribozyme fitness (log ratio)” value stood at 0.876.
C62G: the “polymerase ribozyme fitness (log ratio)” value was -1.53.
In the case of C62A, the “polymerase ribozyme fitness (log ratio)” value is -0.872.
G61A A100U: the “polymerase ribozyme fitness (log ratio)” value is -0.262.
For G61U G107A, the “polymerase ribozyme fitness (log ratio)” value was -5.22.
The result for G60A A84U U87A G113U G122A reads -5.92; that for G61A U78G G120A, 0.458; that for G60C G110U U125G, -2.79.
For G61A C86G G93C, the “polymerase ribozyme fitness (log ratio)” value is -2.03.
The result for C62G G122U reads -1.08; that for G61U C101A U125C, -4.61.
G61U C102U: the “polymerase ribozyme fitness (log ratio)” value is -1.65.
Take C62A C114A: the “polymerase ribozyme fitness (log ratio)” value is -2.71.
The result for G61A C73A C123A reads -0.908; that for G61A A84C, 0.126; that for G60U G120U, 0.205.
For the variant G60U G120A, the “polymerase ribozyme fitness (log ratio)” value is 1.38.
For the variant G61A C97U C114U, the “polymerase ribozyme fitness (log ratio)” value is -2.43.
For the variant G60U U92A, the “polymerase ribozyme fitness (log ratio)” value was -3.34.
With G61U A84G U96G, the “polymerase ribozyme fitness (log ratio)” value was -0.74.
On to G60A G122A, for which the “polymerase ribozyme fitness (log ratio)” value is -0.483.
In the case of C62G G93C G120A U125G U131G, the “polymerase ribozyme fitness (log ratio)” value was -3.65.
The result for G61U G117A reads -0.499; that for G61A A111U, -2.88; that for G60A C62U C79G U106G, -5.51.
As for G60U U87A C123G, the “polymerase ribozyme fitness (log ratio)” value was found to be 1.56.
The result for G60U G61U C104A reads -5.16.
The result for G61A C88G reads -0.136.
With G61C U125G, the “polymerase ribozyme fitness (log ratio)” value was -1.95.
Turning to G61U G77C A119U, the “polymerase ribozyme fitness (log ratio)” value was -1.73.
As for G61A A84U C114U, the “polymerase ribozyme fitness (log ratio)” value is -2.12.
The result for G60A U92A reads -3.24; that for G61C C85U U116A C123U U129A, -6.64.
In the case of G61U U125G, the “polymerase ribozyme fitness (log ratio)” value is -0.883.
Consider G61C G113U, for which the “polymerase ribozyme fitness (log ratio)” value was -4.1.
In the case of C62A G110A, the “polymerase ribozyme fitness (log ratio)” value was -2.12.
As for G61C C104A, the “polymerase ribozyme fitness (log ratio)” value is -3.92.
Turning to G61C C76U, the “polymerase ribozyme fitness (log ratio)” value was -3.1.
Take G60A U133A: the “polymerase ribozyme fitness (log ratio)” value is -0.249.
The result for G60A G63U reads -3.96.
For G61U A83U A90G, the “polymerase ribozyme fitness (log ratio)” value turned out to be 0.371.
Turning to C62G A83U A84U, the “polymerase ribozyme fitness (log ratio)” value is -2.65.
Turning to G61A C123G, the “polymerase ribozyme fitness (log ratio)” value was determined as 1.69.
The result for G60U U125G reads -0.584.
For G61C C82U, the “polymerase ribozyme fitness (log ratio)” value was -1.83.
With G60C C72U, the “polymerase ribozyme fitness (log ratio)” value was -0.882.
On to G61U G128A, for which the “polymerase ribozyme fitness (log ratio)” value was -1.7.
G61C G93U: the “polymerase ribozyme fitness (log ratio)” value was -2.81.
Regarding C62G C76G U112A, the “polymerase ribozyme fitness (log ratio)” value was -3.99.
Regarding G60C A95C, the “polymerase ribozyme fitness (log ratio)” value is -1.25.
The result for G60U C97A C104U U126G reads -5.83; that for G61A G117U, -2.02; that for G60A A108G G117A, -3.74.
For G61U A83C, the “polymerase ribozyme fitness (log ratio)” value was -0.327.
As for G61A C86U, the “polymerase ribozyme fitness (log ratio)” value was -0.712.
C62A G93U C101G: the “polymerase ribozyme fitness (log ratio)” value is -5.19.
G61A A118G: the “polymerase ribozyme fitness (log ratio)” value is -0.742.
For the variant G60U A84U C102A U134G, the “polymerase ribozyme fitness (log ratio)” value was -2.03.
